Measurements taken from patent US20200297837A1.
Read-outs that look alike come from different tables or passages of the source.

Columns and labels:
[1] = target: T1, HLA-E*01033 on the HLA-E*01033-transfected derivative of the K562 cell line (human), P13747
[2] = target: T1, HLA-E*01033 on the …; assay: HLA-E stabilization assay on K562/HLA-E cells, overnight 26 C, anti-HLA-E mAb staining, flow cytometry (without peptide: 1400)

Binder | MFI [1] [MFI] | MFI [2] [MFI]
VMATRRNVL (modifications not checked) [MBt derived peptide … (SEQ ID NO: 15)] | 7520 | –
PEIVIYDYM (modifications not checked) [HIV-1 Pol derived peptide … (SEQ ID NO: 16)] | 7320 | –
RIRTWKSLV (modifications not checked) [HIV-1 Pol derived peptide … (SEQ ID NO: 17)] | – | 6580
RMYSPVSIL (modifications not checked) [HIV-1 Gag derived peptide … (SEQ ID NO: 1)] | – | 8240
TALSEGATP (modifications not checked) [HIV-1 Gag derived peptide … (SEQ ID NO: 3)] | – | 8530
